Test results as given in the supplement of paper PMC10567573.

B1: TRIM14 (parent)
chain: REQADSCREQLDIMNDLSNRVWSI
B2: TEKT4 (parent)
chain: YARYHQAFADRDQSERQRHESQQL

Variants of: B1
Experiment: protein stability index of a GFP-peptide fusion (GPS, HEK-293T) (PSI 1-6); higher = more stable
Conditions: c terminus: a fixed tail appended
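Note: lentivirally expressed fusions sorted by FACS into six bins by GFP to DsRed ratio, PSI derived from sequencing read proportions per bin multiplied by bin number.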

Protein stability index of substitutions, site by site:
S18: P 2.35, V 1.99, R 1.64, Q 1.63, A 2.29, N 2.14, F 1.48, D 2.8, K 1.87, H 1.77, I 2.2, E 2.75, M 2.01, T 2.05, L 1.73, Y 2.07, C 2.3, G 1.83, W 2.21
R20: M 2.24, L 1.29, I 2, N 2.91, Y 2.26, P 2.48, G 2.77, F 2.12, Q 1.79, K 2.78, V 2.4, S 2.41, W 1.64, E 3.04, H 2.73, C 1.99, D 3.31, T 2.19, A 2.8
L17: Q 2.45, Y 2.1, S 2.72, W 1.85, V 2.68, R 2.25, P 2.28, N 2.56, T 2.7
V21: P 3.01, G 2.87, R 2.18, W 2.01, E 3.58, F 3.06, S 2.45, L 2.88, Y 3.19, A 2.96, D 3.92, K 2.69, H 2.69, M 2.01, N 2.97, T 2.76, C 2.41, I 3.01, Q 3.06
I24: P 3.64, C 2.53, H 3.6, Q 3.34, W 2.31, M 2.79, N 3.95, D 4.01, A 2.89, L 2.46, R 3.44, K 3.55, T 4.01, G 3.72, E 3.68, S 3.46, V 2.17, Y 2.53, F 2.25
N19: A 2.91, E 2.98, S 3.17, G 2.61, F 1.54, I 1.98, M 2.53, R 2.3, Q 2.94, H 2.26, C 1.58, D 3.16, P 2.95, V 2.39, L 2.08, Y 2.08, W 2.12, K 2.1, T 2.04
S23: R 2.11, L 2.81, F 2.03, K 2.09, Q 2.68, I 2.75, E 2.65, W 3.05, T 1.84, G 2.66, M 2.22, Y 1.92, N 2.71, H 2.07, V 3.3, P 3.48, C 2.57, D 4.14, A 2.09
W22: C 3.77, E 4.84, G 4.34, F 2.82, K 3.98, T 4.13, L 3, I 2.79, P 4.32, N 3.72, V 3.14, Q 4.12, A 3.85, H 3.79, D 4.56, S 4.21, M 3.29, Y 2.78, R 4.28

Variants of: B2
Experiment: as above
Conditions: c terminus: a fixed tail appended

Protein stability index of substitutions, site by site:
Q6: N 2.28, R 2.26, S 1.77, A 1.62, L 2.02, W 2.08, P 2.69, Y 2.54, M 2.32, D 2.73, F 3.06, I 2.24, C 2.02, T 2.34, G 2.64, H 2.25, K 2.31, E 2.62, V 2.69
D10: L 2.29, Y 2.26, R 2.77, T 1.85, H 2.19, W 2.39, N 2.33, G 2.37, K 3.05, A 1.8, Q 2.17, F 1.99, V 2.32, S 2.49, I 2.58, C 2.36, M 1.97
R11: E 3.29, C 2.14, G 2.82, F 1.99, A 2.4, D 3.59, H 2.32
H5: F 2.5, Y 2.6, R 3, E 4.54, Q 2.98, V 2.87, M 3.43, S 2.16, P 2.98, D 4.57, W 3.19, A 1.91, C 2.39, K 2.88, T 3.6, L 3.47, G 1.44, I 3.29, N 2.3
Y4: M 3.21, E 4.1, A 3.28, R 3.81, H 2.36, N 2.99, D 3.46, F 2.12, C 2.39, L 2.92, P 4, W 1.6, T 2.8, S 3.44, I 3.32, V 3.51, G 3.08, K 3.78, Q 3.85
Y1: R 4.08, E 5, H 4.54, A 3.9, I 4.55, C 3.46, S 4.87, F 2.07, G 5.11, Q 4.76, P 5.02, V 4.91, M 4.44, K 4.76, N 4.9, D 5.23, T 4.62, W 3.69, L 4.55
A9: D 3.86, L 3.49, M 2.21, P 3.9, T 3.36, S 2.48, R 2.35, Y 2.89, V 3.35, E 3.57, C 1.67, N 3.09, I 3.12, Q 2.98, H 3.21, K 3.3, F 2.58, G 2.6
A7: R 3.5, Y 1.69, L 3.3, S 3.2, K 3.25, H 2.2, C 2.88, T 3.48, I 1.81, W 2.02, N 3.07, F 2.99, P 3.56, Q 3.03, D 3.7, G 3.18, V 2.06, E 3.72
R3: V 3.11, T 2.79, H 2.64, A 2.85, F 2.38, M 2.6, S 2.36, I 3.4, L 2.97, D 3, E 2.06, P 1.6, Q 2.57, G 1.98, N 2.79, K 2.3, C 2.84, W 2.2, Y 2.88
A2: T 1.67, K 3.82, P 2.7, N 2.85, M 2.27, S 1.92, H 4.12, D 4.3, L 2.09, Y 3.58, I 2.5, R 4.27, W 2.68, Q 1.84, E 4.29, F 2.87, V 1.87, C 1.48
F8: C 3.97, I 4.31, T 3.66, Q 4, H 4.58, G 3.83, E 4.14, L 4.72, M 3.92, N 4.61, A 4.75, K 4.01, W 1.4, D 4.63, S 3.86, R 3.73, P 4.75, V 3.92, Y 2.95
